According to IntAct's records for PubMed 14638859:

B1: ADP-ribosylation factor-binding protein GGA1 (Homo sapiens), Q9UJY5 (parent)
chain: MEPAMEPETLEARINRATNPLNKELDWASINGFCEQLNEDFEGPPLATRLLAHKIQSPQEWEAIQALTVLETCMKSCGKRFHDEVGKFRFLNELIKVVSPKYLGSRTSEKVKNKILELLYSWTVGLPEEVKIAEAYQMLKKQGIVKSDPKLPDDTTFPLPPPRPKNVIFEDEEKSKMLARLLKSSHPEDLRAANKLIKEMVQEDQKRMEKISKRVNAIEEVNNNVKLLTEMVMSHSQGGAAAGSSEDLMKELYQRCERMRPTLFRLASDTEDNDEALAEILQANDNLTQVINLYKQLVRGEEVNGDATAGSIPGSTSALLDLSGLDLPPAGTTYPAMPTRPGEQASPEQPSASVSLLDDELMSLGLSDPTPPSGPSLDGTGWNSFQSSDATEPPAPALAQAPSMESRPPAQTSLPASSGLDDLDLLGKTLLQQSLPPESQQVRWEKQQPTPRLTLRDLQNKSSSCSSPSSSATSLLHTVSPEPPRPPQQPVPTELSLASITVPLESIKPSNILPVTVYDQHGFRILFHFARDPLPGRSDVLVVVVSMLSTAPQPIRNIVFQSAVPKVMKVKLQPPSGTELPAFNPIVHPSAITQVLLLANPQKEKVRLRYKLTFTMGDQTYNEMGDVDQFPPPETWGSL
partner: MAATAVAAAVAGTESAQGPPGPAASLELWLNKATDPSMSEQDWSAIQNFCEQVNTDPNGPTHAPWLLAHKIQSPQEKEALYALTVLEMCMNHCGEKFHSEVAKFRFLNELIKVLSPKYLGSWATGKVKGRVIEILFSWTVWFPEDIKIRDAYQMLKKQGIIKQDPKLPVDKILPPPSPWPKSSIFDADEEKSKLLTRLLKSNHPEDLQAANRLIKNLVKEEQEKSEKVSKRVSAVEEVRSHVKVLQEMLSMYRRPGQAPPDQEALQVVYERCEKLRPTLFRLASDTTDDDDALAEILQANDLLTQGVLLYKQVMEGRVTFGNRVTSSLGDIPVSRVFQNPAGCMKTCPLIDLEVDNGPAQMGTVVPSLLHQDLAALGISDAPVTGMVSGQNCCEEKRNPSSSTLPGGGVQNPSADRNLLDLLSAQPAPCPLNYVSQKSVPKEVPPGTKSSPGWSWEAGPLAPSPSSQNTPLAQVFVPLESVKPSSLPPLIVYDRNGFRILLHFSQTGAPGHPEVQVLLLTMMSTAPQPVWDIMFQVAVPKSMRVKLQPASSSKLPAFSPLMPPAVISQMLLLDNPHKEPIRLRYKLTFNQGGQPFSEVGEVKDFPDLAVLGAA

Variants of: B1
Details: with gga2_human GGA2, Q9UJY4

effect of a mutation on the interaction | Variant
with no effect | D358A
